Experimental data taken from paper PMC6116751, “An enzymatic system for decolorization of wastewater dyes using immobilized CueO laccase‐like multicopper oxidase on poly‐3‐hydroxybutyrate” (Microbial Biotechnology, 2018).

Substrate: COc1cccc(OC)c1O
Experiment: purified protein
Type: biochemical, Escherichia coli
Conditions: soluble enzyme, 20 mM Tris pH 6.5, 10 μM Cu2+, 30 °C

B1: BioF–CueO (CueO laccase-like multicopper oxidase fused to BioF tag) (Escherichia coli K-12) (protein)
chain: AERPTLPIPDLLTTDARNRIQLTIGAGQSTFGGKTATTWGYNGNLLGPAVKLQRGKAVTVDIYNQLTEETTLHWHGLEVPGEVDGGPQGIIPPGGKRSVTLNVDQPAATCWFHPHQHGKTGRQVAMGLAGLVVIEDDEILKLMLPKQWGIDDVPVIVQDKKFSADGQIDYQLDVMTAAVGWFGDTLLTNGAIYPQHAAPRGWLRLRLLNGCNARSLNFATSDNRPLYVIASDGGLLPEPVKVSELPVLMGERFEVLVEVNDNKPFDLVTLPVSQMGMAIAPFDKPHPVMRIQPIAISASGALPDTLSSLPALPSLEGLTVRKLQLSMDPMLDMMGMQMLMEKYGDQAMAGMDHSQMMGHMGHGNMNHMNHGGKFDFHHANKINGQAFDMNKPMFAAAKGQYERWVISGVGDMMLHPFHIHGTQFRILSENGKPPAAHRAGWKDTVKVEGNVSEVLVKFNHDAPKEHAYMAHCHLLEHEDTGMMLGFTV
notes: signal peptide absent (the primer starts at mature Ala-Glu-Arg-Pro-Thr); cueO amplified from pCueO (pASK-IBA3 derivative); plasmid pDB2 (pET-21d); expressed in E. coli BL21(DE3), butyl sepharose; tag kept
- Km: 400 ± 100 µM
- kcat: 4.3 ± 0.1 s⁻¹
- kcat/Km: 10700 M⁻¹ s⁻¹
